Results from PMC10069731 (Communications Biology, 2023).

What was measured:
[1] = biological target: SARS-CoV-2 WT spike ECD, 6P-stabilized (SARS-CoV-2, WT (ancestral), UniProt P0DTC2, stabilised); assay: ELISA; conditions: both partners purified
[2] = biological target: SARS-CoV-2 Omicron BA.4/5 RBD (SARS-CoV-2 Omicron BA.4/5, strain); assay: BLI; conditions: both partners purified

B1: rabbit monoclonal antibody (RmAb) 1H1, IgG (antibody, V domains shown)
VH: QSLEESGGDLVKPGASLTLTCTASGFSFSSGYDMCWVRQAPGKGLEWIACIGTGSSGNIYYASWAKGRFTISKTSSTTVTLQMTSLTAADTATYFCARDDADYAGPDYFNLWGPGTLVTVSS
VL: DIVMTQTPASVSEPVGGTVTIKCQASESISNWLAWYQQKPGQPPKLLIYAAFTLASGVPSRFKGSGSGTQFTLTINGVECADAATYYCQQTYSSRDVDNVFGGGTEVVVK
B1 was tested, and the binding result [1] was “binds” and the Kd [2] was 1.33 nM.
